Data published in patent publication US20200325237A1 (AVIDITY BIOSCIENCES, published 2020).
Numbering of substitutions follows the chain as printed. Read-outs that look alike come from different tables or passages of the source.

T1: TfR2 (transferrin receptor 2) (UniProt Q9UP52 105-801, limits assumed)
T1 sequence (looked up): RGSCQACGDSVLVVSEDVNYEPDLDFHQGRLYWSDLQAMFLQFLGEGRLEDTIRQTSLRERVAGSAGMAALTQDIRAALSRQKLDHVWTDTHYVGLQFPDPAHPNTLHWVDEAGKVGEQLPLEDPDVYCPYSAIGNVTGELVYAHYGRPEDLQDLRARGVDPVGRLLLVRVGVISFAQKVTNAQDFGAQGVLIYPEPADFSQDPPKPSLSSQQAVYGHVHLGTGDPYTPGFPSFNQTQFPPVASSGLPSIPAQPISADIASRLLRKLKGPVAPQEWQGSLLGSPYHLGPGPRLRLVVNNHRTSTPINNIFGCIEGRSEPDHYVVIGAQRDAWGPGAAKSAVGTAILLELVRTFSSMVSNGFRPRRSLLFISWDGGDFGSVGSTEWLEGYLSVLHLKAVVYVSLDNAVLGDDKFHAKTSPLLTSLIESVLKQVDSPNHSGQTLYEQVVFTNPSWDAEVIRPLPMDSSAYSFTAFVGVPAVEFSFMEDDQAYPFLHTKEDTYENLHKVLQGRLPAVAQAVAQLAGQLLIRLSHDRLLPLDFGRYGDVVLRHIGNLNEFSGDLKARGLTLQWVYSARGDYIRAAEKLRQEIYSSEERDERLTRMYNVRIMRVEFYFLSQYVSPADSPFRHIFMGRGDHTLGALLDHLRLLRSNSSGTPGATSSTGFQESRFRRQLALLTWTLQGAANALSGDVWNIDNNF

B1: hTfR1.IgG2 mAb-SSB siRNA conjugate (DAR1) (antibody, DAR 1, V domains shown)
VH: QVQLQQPGAELVKPGASVKLSCKASGYTFTNYWMHWVKQRPGQGLEWIGEINPINGRSNYGERFKTKATLTVDKSSSTAYMQLSSLTSEDSAVYYCARGTRAMHYWGQGTSVTVSS
VL: DIQMTQSPASLSVSVGETVTITCRTSENIYNNLAWYQQKQGKSPQLLVYAATNLADGVPSRFSGSGSGTQYSLKINSLQSEDFGNYYCQHFWGTPLTFGAGTKLELKR
modifications: SSB siRNA duplex joined through a bis-maleimide (BisMal) linker to TCEP-reduced cysteines, DAR1; chain and positions not stated; remaining free cysteines capped with N-ethylmaleimide
notes: also called TfR-SSB DAR 1; conjugated hTfRL.IgG2 mAb
B2: 13E4-Variant 9iii (antibody, human IgG1, kappa, L234A L235A)
heavy: QVQLVQSGAEVKKPGASVKVSCKASGYTFTNYWMHWVRQAPGQGLEWMGEINPINGRSNYAQKFQGRVTLTVDTSISTAYMELSRLRSDDTAVYYCARGTRAMHYWGQGTLVTVSSASTKGPSVFPLAPSSKSTSGGTAALGCLVKDYFPEPVTVSWNSGALTSGVHTFPAVLQSSGLYSLSSVVTVPSSSLGTQTYICNVNHKPSNTKVDKRVEPKSCDKTHTCPPCPAPEAAGGPSVFLFPPKPKDTLMISRTPEVTCVVVDVSHEDPEVKFNWYVDGVEVHNAKTKPREEQYNSTYRVVSVLTVLHQDWLNGKEYKCKVSNKARPAPIEKTISKAKGQPREPQVYTLPPSREEMTKNQVSLTCLVKGFYPSDIAVEWESNGQPENNYKTTPPVLDSDGSFFLYSKLTVDKSRWQQGNVFSCSVMHEALHNHYTQKSLSLSPG
light: DIQMTQSPSSLSASVGDRVTITCRTSENIYNNLAWYQQKPGKAPKLLIYAATNLAEGVPSRFSGSGSGTDYTLTISSLQPEDFATYYCQHFWGTPLTFGGGTKVEIKRTVAAPSVFIFPPSDEQLKSGTASVVCLLNNFYPREAKVQWKVDNALQSGNSQESVTEQDSKDSTYSLSSTLTLSKADYEKHKVYACEVTHQGLSSPVTKSFNRGEC
notes: Humanized hIgG1 with Fc mutations; also called hIgG1 TfR-Var9iii
B3: 13E4-Variant 15i (antibody, human IgG1, kappa, L234A L235A)
heavy: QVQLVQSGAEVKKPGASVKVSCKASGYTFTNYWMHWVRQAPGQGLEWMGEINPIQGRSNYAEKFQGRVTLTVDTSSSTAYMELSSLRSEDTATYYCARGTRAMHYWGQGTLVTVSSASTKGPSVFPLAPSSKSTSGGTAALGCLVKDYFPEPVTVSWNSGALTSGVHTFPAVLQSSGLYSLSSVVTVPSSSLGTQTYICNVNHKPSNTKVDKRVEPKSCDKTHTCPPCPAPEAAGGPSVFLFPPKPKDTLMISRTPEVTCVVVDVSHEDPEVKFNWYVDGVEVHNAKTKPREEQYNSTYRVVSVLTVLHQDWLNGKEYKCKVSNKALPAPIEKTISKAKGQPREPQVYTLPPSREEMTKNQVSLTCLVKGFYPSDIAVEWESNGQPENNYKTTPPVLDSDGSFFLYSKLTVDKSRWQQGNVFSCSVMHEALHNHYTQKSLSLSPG
light: B2 light with N31S, A51G, E56D, T85N
notes: Humanized hIgG1 with Fc mutations; also called hIgG1 TfR-Var15i
B4: 13E4-Variant 15ii (antibody, human IgG1, kappa, L234A L235A)
heavy: B2 heavy with N55Q, Q62E, I76S, R85S, D89E, V93T, K321G, R327L
light: B2 light with N31S, A51G, E56D, T85N
notes: Humanized hIgG1 with Fc mutations; also called hIgG1 TfR-Var15ii

Key:
[1] = target: T2, recombinant human transferrin receptor protein (Sino Biological 11020-H07H) (human, UniProt P02786 89-760); assay: ELISA on plate-coated recombinant human TfR1; fit: specific binding with Hill slope
T2 construct: Bought protein coated on ELISA plates; also called recombinant human TfR1; human TfR1
T2 sequence (P02786 89-760 limits assumed): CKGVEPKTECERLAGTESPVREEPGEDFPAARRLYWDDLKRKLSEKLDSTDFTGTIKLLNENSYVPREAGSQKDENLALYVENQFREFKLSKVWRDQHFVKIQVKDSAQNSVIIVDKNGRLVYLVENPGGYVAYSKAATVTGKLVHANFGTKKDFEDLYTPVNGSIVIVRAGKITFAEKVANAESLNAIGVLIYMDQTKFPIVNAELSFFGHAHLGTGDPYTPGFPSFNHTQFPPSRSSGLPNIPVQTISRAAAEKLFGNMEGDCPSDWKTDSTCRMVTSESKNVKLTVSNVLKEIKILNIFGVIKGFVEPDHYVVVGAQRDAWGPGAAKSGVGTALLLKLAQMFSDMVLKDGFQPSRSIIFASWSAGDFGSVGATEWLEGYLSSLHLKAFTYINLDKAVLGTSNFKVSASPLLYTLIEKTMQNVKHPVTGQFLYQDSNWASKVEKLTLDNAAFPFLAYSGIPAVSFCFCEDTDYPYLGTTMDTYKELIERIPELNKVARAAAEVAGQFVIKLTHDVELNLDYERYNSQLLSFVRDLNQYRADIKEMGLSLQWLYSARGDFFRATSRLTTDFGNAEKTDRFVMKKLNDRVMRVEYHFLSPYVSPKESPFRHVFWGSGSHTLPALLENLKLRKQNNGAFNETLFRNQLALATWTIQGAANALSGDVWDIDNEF
Experimental: (§1) 100 μL of Superblock (ThermoFisher PI-37535) was added to each well and incubated for 1 hour at room temperature. The wash step was repeated before the addition of the samples. Samples were added at concentrations up to 10 nM, 50 μL/well. Plates were incubated for another hour at room temp and wash step repeated. Secondary antibody (Peroxidase AffiniPure Goat Anti-Human IgG, Fcγ Fragment Specific, Jackson Immunoresearch, 109-035-098) was diluted 1:5000 in Superblock and 50 μL/well added. Plates were incubated for 1 hour at room temperature and washed one more time. Binding was measured by the addition of 50 μL of 1-Step™ Ultra TMB-ELISA (ThermoFisher, 34028), incubated for 5 minutes, and the reaction was stopped with the addition of 25 μL of Stop Solution 2N sulfuric Acid (R&D Systems DY994). Absorbance was measured at 450 nm, with reference wavelength 570 nm subtracted. Binding constants were determined using GraphPad Prism Specific Binding with Hill Slope.
(§2) Half-well high-binding 96-well plates (Costar #3690) were coated with recombinant human transferrin receptor protein (Sino Biological 11020-H07H) or recombinant cyno transferrin receptor protein (Sino Biological 90253-C07H) at 1 ng/μL in PBS (Gibco 14190) and incubated overnight at 4° C. […] Absorbance was measured at 450 nm, with reference wavelength 570 nm subtracted. […]

[2] = target: T3, recombinant cyno transferrin receptor protein (Sino Biological 90253-C07H) (cyno, UniProt H9EXL1 89-760 (rhesus entry)); assay: ELISA on plate-coated recombinant cyno TfR1 (CD71); fit: specific binding with Hill slope
T3 construct: Bought protein coated on ELISA plates; also called recombinant cyno TfR1; cynoTfR1
T3 sequence (chain, as listed by the source C07H C07H): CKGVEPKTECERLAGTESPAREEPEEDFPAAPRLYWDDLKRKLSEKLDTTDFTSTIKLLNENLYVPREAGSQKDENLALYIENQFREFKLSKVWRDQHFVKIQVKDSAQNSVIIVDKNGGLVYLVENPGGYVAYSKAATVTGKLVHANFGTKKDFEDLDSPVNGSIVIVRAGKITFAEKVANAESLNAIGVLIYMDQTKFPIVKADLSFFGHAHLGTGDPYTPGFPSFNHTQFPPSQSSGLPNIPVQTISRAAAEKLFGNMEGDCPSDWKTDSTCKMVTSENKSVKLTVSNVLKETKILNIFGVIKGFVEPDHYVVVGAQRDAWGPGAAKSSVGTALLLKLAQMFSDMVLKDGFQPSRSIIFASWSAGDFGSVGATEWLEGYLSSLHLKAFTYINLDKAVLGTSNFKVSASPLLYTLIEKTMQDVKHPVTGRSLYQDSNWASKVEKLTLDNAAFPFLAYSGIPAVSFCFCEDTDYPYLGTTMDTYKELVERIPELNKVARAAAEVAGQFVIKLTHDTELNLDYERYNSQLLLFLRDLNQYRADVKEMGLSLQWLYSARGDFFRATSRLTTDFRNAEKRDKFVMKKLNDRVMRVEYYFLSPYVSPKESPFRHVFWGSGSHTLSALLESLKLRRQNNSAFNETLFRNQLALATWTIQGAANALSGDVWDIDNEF
Experimental: as §1, §2

[3] = target: T1, TfR2 (transferrin receptor 2); assay: A450 plate assay on TfR2 (method not described in the text)
[4] = target: T4, hTfR (human transferrin receptor, source and construct not stated) (human, UniProt P02786 89-760, limits assumed); assay: SPR (BioRad ProteOn XPR36), mAb captured on Protein A, hTfR as analyte, 25 C
T4 sequence (P02786 89-760 limits assumed): as the sequence (P02786 89-760 limits assumed) above
Experimental: The binding kinetics of nine exemplary humanized anti-TfR antibodies and the parent chimeric antibody were characterized. Studies were run on a BioRad ProteOn XPR36 optical biosensor using a GLM sensor chip coated with Protein A for mAb capture. Running buffer included 10 mM EPES, 150 mM NaCl, pH 7.4 with 0.05 tween-20 with 0.2 mg/ml BSA. Data were collected at 25 degrees C. All mAbs were diluted into running buffer to 2 ug/ml based on the stock concentration provided. Each was then captured for 40 seconds over a Protein A surface.
hTfR (100 ug) was dissolved into […] of water to yield a 4.3 uM stock concentration. hTfR was dilted to 43 nM as the highest concentration and tested in a 3 fold dilution series. hTfR was injected at 200 ul/min for 2 minutes followed by a one-hour dissociation phase.

[5] = target: T4, hTfR (human transferrin receptor, …); assay: ELISA; ratio of the Kd on HFE-captured hTfR to the Kd on directly coated hTfR
[6] = target: T4, hTfR (human transferrin receptor, …); assay: ELISA; ratio of the Kd on transferrin-captured hTfR to the Kd on directly coated hTfR
Experimental: (§3) Antibodies were biotinylated using 50 fold molar excess of EZ-Link No weigh NHS-Biotin (Thermo Scientific A39256) following manufacturer's instructions. Half-well high-bind plates (Costar #3690) were coated with 500 ng/mL purified human holo-transferrin (R&D Systems 2914-HT) in PBS at 4° C. overnight. For comparison, plates were coated directly with hTfR. Plates were washed four times with 100 μL of Tris buffered saline+Tween (20×TBST, Cell Signaling 9997S). 100 μL of Superblock (ThermoFisher PI-37535) was added to each well and incubated for 1 hour at room temperature. The wash step was repeated before the addition of the hTfR (200 ng/mL in 25 μl) to the transferrin plates, or Superblock to the hTfR plates, and incubated for 30 minutes. Biotinylated antibodies were diluted to 20 nM for the high concentration and added to the plates with 3-fold serial dilution. 25 μl/well was added to the 25 μl already in the plate. Plates were incubated for 1 hour, and wash step was repeated. Streptavidin-HRP (R&D Systems DY998) was added following recommended dilution on the package insert, and a final wash step was done. Binding was measured by the addition of 50 μL of 1-Step™ Ultra TMB-ELISA (ThermoFisher, 34028), incubated for 5 minutes, and the reaction was stopped with the addition of 25 μL of Stop Solution 2N sulfuric Acid (R&D Systems DY994). Absorbance was measured at 450 nm, with reference wavelength 570 nm subtracted. Binding constants were determined using GraphPad Prism Specific Binding with Hill Slope. Change in antibody binding constants in the presence versus absense of transferrin is considered relative to the commercially available antibody which is known to have an overlapping epitope with transferrin (AF2474, R&D Systems).

[7] = target: T3, recombinant cyno transferrin receptor …; assay: ELISA on plate-coated recombinant cyno TfR1 (CD71); fit: specific binding with Hill slope; remark: listed apart in the source
Experimental: as §1, with “Half-well high-binding 96-well plates (Costar #3690) were coated with recombinant human transferrin receptor protein (Sino Biological 11020-H07H) or recombinant cyno transferrin receptor protein (Sino Biological 90253-C07H) at 1 ng/μL in PBS (Gibco 14190) and incubated overnight at 4° C. Plates were washed four times with 100 μL of Tris buffered saline+Tween (20×TBST, Cell Signaling 9997S). 100” for “100”

[8] = target: T4, hTfR (human transferrin receptor, …); assay: ELISA, biotinylated antibody on hTfR captured by plate-coated HFE (HFE+TfR); fit: specific binding with Hill slope
[9] = target: T4, hTfR (human transferrin receptor, …); assay: ELISA, biotinylated antibody on hTfR captured by plate-coated human holo-transferrin (Tf+TfR); fit: specific binding with Hill slope
Experimental: as §3

[10] = target: T2, recombinant human transferrin receptor …; assay: ELISA on plate-coated recombinant human TfR1 (CD71); fit: specific binding with Hill slope (row labels blank in the lower block; row taken by the order Bmax, h, Kd)
Experimental: as §1, with “Half-well high-binding 96-well plates (Costar #3690) were coated with recombinant human transferrin receptor protein (Sino Biological 11020-H07H) or recombinant cyno transferrin receptor protein (Sino Biological 90253-C07H) at 1 ng/μL in PBS (Gibco 14190) and incubated overnight at 4° C. Plates were washed four times with 100 μL of Tris buffered saline+Tween (20×TBST, Cell Signaling 9997S). 100” for “100”

| Binder | Kd [1] | Kd [2] | binding result [3] | Kd [4] | koff [4] | kon [4] | Kd(HFE+TfR)/Kd(TfR) [5] | Kd(Tf+TfR)/Kd(TfR) [6] | Bmax [7] | Kd [7] | h [7] | Bmax [8] | Kd [8] | h [8] | Bmax [9] | Kd [9] | h [9] | Bmax [10] | Kd [10] | h [10] |
| --- | --- | --- | --- | --- | --- | --- | --- | --- | --- | --- | --- | --- | --- | --- | --- | --- | --- | --- | --- | --- |
| B1 | 0.00318 nM | 0.00499 nM |  |  |  |  |  |  |  |  |  |  |  |  |  |  |  |  |  |  |
| B2 |  |  | no binding (tested: 1000 nM) | 0.00527 nM | 4.17e-06 s⁻¹ | 791000 M⁻¹ s⁻¹ | 11.4 | 2.5 | 94 % max binding | 0.0137 nM | 1.74 | 3.14 A450 | 0.248 nM | 1.38 | 3.53 A450 | 0.0546 nM | 1.49 | 93.8 % max binding | 0.012 nM | 1.56 |
| B3 |  |  | no binding (tested: 1000 nM) | 0.00851 nM | 6.13e-06 s⁻¹ | 720000 M⁻¹ s⁻¹ | 8.5 | 2.9 | 94.2 % max binding | 0.0125 nM | 1.55 | 2.7 A450 | 0.182 nM | 1.65 | 3.47 A450 | 0.0619 nM | 1.56 | 95.3 % max binding | 0.00713 nM | 1.29 |
| B4 |  |  | no binding (tested: 1000 nM) | 0.0131 nM | 9.14e-06 s⁻¹ | 697000 M⁻¹ s⁻¹ | 10.2 | 2.5 | 94.4 % max binding | 0.018 nM | 1.53 | 2.79 A450 | 0.346 nM | 1.28 | 3.52 A450 | 0.0849 nM | 1.46 | 93.7 % max binding | 0.00987 nM | 1.25 |
